In patent US20240261333A1, “NOVEL TARGETS FOR ENHANCING ANTI-TUMOR IMMUNITY” (THE BROAD INSTITUTE, INC., priority 2021, published 2024):

Assays:
Assay in all cases: co-IP, IgG control, lysate of cells with C-FLAG B3GNT2; mass spectrometry
[1] = biological target: ARPC4 (human) (UniProt P59998)
[2] = biological target: ATXN2 (human) (UniProt Q99700)
[3] = biological target: CAT (human) (UniProt P04040)
[4] = biological target: CSE1L (human) (UniProt P55060)
[5] = biological target: EIF5B (human) (UniProt O60841)
[6] = biological target: FAU (human) (UniProt P62861)
[7] = biological target: FUBP3 (human) (UniProt Q96I24)
[8] = biological target: HADHB (human) (UniProt P55084)
[9] = biological target: HNRNPA2B1 (human) (UniProt P22626)
[10] = biological target: KRT4 (human) (UniProt P19013)
[11] = biological target: KRT6B (human) (UniProt P04259)
[12] = biological target: LMNA (human) (UniProt P02545)
[13] = biological target: T1, MOV10 (human) (UniProt Q9HCE1)
T1 sequence (looked up): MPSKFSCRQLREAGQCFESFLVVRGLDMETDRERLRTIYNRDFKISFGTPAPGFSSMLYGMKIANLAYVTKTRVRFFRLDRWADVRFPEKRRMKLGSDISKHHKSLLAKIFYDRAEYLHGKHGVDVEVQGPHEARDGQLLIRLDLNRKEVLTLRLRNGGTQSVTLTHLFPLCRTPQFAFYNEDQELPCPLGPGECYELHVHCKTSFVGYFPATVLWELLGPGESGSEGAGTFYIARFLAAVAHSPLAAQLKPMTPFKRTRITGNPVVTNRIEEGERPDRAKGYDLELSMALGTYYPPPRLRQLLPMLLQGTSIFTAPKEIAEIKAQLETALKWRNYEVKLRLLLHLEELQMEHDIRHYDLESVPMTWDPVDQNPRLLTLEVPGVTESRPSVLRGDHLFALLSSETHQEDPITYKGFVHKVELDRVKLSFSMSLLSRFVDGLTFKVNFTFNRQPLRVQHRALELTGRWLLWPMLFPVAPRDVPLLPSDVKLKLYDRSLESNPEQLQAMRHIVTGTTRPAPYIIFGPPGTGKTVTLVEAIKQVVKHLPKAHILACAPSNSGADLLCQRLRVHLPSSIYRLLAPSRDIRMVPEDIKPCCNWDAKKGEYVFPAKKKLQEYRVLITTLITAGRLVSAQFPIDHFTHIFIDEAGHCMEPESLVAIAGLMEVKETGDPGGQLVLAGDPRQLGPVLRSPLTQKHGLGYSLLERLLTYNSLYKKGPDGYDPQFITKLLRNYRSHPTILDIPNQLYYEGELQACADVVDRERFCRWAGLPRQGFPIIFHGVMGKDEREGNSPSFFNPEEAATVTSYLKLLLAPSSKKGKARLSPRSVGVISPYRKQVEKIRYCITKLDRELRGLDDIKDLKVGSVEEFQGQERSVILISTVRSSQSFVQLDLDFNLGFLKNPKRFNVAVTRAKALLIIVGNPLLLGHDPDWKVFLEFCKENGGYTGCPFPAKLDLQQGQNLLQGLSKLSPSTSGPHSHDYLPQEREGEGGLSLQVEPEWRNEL

[14] = biological target: MYH11 (human) (UniProt P35749)
[15] = biological target: PRBP1 (human) (UniProt P26599)
[16] = biological target: PRRC2A (human) (UniProt P48634)
[17] = biological target: RPL13 (human) (UniProt P26373)
[18] = biological target: RPL18 (human) (UniProt Q07020)
[19] = biological target: RPS28 (human) (UniProt P62857)
[20] = biological target: T2, SERBP1 (human) (UniProt Q8NC51)
T2 sequence (looked up): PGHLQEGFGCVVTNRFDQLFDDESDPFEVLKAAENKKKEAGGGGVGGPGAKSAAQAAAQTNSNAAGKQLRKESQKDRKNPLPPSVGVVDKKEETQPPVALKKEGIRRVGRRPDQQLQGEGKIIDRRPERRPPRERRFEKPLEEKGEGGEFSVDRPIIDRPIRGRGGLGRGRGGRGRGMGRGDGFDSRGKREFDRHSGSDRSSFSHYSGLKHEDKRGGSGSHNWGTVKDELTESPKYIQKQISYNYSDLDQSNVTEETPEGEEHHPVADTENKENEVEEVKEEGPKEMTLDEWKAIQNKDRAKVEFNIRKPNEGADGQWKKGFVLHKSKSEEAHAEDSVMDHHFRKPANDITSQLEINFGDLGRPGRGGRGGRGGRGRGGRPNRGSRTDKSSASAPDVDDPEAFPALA

[21] = biological target: UBAP2L (human) (UniProt Q14157)

Chain of PRRC2A (human) (P48634 whole entry): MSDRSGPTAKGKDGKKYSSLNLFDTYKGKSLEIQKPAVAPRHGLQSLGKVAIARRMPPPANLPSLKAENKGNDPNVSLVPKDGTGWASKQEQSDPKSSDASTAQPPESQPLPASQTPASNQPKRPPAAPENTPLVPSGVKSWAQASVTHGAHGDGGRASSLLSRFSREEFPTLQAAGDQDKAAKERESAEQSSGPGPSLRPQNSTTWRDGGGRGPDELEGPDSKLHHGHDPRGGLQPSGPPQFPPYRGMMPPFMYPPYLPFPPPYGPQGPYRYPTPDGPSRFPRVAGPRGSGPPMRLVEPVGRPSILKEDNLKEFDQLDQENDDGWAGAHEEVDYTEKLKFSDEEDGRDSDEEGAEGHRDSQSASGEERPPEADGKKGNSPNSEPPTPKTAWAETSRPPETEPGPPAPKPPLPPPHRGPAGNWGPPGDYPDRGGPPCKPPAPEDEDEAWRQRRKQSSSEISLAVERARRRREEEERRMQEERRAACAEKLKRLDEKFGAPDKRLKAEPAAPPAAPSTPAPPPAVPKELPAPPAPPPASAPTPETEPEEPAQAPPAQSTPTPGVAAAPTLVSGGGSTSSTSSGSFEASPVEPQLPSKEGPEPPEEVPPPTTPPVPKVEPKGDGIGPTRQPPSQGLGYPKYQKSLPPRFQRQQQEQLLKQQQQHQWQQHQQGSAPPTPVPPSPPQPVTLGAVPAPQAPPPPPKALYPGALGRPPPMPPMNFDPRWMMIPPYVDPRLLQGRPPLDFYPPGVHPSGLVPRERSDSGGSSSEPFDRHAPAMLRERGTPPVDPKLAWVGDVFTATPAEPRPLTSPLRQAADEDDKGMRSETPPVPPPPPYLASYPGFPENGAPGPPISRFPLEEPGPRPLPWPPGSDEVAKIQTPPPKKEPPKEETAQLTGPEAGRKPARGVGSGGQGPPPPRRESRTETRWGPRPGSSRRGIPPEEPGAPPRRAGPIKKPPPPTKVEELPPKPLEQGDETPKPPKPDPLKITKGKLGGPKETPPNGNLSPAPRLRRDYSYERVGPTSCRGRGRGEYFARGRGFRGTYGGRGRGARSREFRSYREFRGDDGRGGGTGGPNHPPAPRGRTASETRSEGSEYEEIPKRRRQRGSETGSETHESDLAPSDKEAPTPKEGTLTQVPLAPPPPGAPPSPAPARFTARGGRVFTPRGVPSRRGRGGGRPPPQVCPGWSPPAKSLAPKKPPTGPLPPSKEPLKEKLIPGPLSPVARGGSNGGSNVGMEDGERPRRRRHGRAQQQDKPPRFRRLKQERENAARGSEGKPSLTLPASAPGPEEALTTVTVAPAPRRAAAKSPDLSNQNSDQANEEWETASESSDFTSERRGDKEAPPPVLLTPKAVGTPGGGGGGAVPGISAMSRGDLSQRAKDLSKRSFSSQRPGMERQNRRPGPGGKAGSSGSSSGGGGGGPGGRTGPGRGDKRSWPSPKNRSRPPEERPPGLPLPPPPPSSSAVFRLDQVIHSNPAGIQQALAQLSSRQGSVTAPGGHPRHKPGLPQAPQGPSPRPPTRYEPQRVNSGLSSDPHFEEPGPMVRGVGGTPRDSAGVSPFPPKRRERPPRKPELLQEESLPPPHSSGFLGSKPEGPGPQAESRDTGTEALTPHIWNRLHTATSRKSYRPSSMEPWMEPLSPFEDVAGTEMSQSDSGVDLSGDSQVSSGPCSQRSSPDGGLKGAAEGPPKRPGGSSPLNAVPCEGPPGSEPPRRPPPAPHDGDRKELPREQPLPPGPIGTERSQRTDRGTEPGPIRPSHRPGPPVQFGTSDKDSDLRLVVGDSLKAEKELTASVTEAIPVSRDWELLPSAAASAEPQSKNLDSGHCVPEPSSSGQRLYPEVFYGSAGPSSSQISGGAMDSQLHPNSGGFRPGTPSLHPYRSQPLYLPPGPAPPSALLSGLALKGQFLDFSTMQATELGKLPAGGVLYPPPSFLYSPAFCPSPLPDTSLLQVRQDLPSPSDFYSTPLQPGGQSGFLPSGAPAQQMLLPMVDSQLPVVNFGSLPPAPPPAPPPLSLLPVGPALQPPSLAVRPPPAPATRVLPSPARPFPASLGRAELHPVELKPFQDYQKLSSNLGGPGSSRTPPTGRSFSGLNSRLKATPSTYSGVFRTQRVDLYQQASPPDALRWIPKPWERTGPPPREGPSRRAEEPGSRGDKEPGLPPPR
Chain of FUBP3 (human) (Q96I24 2-572 limits assumed): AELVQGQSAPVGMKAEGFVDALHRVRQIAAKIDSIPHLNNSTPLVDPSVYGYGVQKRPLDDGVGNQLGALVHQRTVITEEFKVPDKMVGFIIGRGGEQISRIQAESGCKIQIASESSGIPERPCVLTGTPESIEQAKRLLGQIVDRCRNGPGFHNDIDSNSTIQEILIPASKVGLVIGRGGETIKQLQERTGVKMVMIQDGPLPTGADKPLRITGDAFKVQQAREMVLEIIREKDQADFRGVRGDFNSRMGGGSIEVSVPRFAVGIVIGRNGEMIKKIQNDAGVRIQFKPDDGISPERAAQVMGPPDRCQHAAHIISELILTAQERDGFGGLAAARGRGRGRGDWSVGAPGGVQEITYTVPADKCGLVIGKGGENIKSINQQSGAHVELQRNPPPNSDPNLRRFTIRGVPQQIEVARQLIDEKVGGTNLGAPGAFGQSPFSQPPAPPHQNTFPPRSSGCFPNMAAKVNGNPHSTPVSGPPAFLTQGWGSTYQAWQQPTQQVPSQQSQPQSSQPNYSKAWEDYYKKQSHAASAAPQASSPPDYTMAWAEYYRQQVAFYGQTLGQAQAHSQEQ
Chain of MYH11 (human) (P35749 other isoform, or with tags, fused parts or gaps limits assumed): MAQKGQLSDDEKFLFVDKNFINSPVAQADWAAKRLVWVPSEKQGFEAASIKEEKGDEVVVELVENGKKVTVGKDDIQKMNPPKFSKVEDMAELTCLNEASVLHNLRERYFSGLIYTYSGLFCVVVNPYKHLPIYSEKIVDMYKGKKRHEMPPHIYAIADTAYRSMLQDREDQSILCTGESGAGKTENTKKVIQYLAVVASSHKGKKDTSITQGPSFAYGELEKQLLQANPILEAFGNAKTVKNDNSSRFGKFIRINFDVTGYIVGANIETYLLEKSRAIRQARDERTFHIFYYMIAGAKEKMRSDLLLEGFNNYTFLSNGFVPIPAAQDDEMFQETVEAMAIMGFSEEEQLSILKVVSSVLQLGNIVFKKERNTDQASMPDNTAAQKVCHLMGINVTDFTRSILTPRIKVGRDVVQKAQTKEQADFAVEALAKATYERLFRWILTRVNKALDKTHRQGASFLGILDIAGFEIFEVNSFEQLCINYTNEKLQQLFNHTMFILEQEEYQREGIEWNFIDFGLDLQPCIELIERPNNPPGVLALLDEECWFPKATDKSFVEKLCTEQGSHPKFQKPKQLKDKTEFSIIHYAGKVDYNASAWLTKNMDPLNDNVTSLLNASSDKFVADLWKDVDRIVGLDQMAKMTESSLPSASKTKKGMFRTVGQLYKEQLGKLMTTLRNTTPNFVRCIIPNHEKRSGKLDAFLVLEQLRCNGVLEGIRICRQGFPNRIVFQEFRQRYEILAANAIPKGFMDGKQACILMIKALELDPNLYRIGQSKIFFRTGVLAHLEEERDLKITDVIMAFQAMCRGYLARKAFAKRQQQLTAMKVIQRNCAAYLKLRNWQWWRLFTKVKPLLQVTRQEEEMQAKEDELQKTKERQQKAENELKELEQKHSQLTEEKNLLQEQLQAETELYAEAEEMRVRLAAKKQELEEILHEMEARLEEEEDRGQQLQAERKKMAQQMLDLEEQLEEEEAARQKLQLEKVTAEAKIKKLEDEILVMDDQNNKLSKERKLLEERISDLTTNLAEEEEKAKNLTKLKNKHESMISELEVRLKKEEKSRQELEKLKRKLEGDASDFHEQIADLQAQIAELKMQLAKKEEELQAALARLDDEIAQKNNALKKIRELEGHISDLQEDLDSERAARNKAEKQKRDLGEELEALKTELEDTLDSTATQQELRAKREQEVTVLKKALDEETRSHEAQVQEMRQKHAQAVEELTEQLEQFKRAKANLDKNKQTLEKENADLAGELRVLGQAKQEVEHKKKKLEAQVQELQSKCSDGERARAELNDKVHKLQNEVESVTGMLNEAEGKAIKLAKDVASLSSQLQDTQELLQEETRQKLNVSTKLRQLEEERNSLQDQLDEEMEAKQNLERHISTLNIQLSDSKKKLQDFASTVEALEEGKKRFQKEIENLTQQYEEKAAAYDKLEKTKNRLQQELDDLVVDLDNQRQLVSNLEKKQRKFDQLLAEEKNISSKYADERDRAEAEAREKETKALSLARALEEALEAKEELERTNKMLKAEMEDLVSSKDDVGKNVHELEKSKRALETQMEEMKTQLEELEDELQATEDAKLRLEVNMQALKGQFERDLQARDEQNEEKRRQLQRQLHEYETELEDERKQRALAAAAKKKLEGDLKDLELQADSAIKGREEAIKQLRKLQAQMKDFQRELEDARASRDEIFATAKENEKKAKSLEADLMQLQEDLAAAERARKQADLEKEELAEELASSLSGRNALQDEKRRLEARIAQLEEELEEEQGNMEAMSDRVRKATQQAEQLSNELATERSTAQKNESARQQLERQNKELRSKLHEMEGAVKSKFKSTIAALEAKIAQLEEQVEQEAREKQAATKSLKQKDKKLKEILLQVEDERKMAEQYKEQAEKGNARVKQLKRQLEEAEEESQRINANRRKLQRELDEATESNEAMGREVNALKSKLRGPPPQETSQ
Chain of HADHB (human) (P55084 34-474 limits assumed): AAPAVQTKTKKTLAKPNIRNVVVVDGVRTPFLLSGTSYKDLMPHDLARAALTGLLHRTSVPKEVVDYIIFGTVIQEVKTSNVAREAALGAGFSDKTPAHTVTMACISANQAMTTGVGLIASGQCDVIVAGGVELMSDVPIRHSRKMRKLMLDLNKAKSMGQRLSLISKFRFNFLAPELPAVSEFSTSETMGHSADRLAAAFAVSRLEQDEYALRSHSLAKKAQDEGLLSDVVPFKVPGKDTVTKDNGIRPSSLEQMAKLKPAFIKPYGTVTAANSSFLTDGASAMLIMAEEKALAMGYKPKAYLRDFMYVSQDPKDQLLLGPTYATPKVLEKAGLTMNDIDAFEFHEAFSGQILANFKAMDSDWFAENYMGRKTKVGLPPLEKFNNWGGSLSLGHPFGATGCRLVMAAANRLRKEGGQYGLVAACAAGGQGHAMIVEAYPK

With “IgG control (Millipore Sigma 12-371) (antibody)” the co-IP mass spectrometry count [1] was 0, the co-IP mass spectrometry count [2] was 3 and the co-IP mass spectrometry count [3] was 3. It also gave a co-IP mass spectrometry count [4] of 0, a co-IP mass spectrometry count [5] of 0 and a co-IP mass spectrometry count [6] of 5. The co-IP mass spectrometry count [7] was 7, the co-IP mass spectrometry count [8] was 0 and the co-IP mass spectrometry count [9] was 9. The co-IP mass spectrometry count [10] was 0, the co-IP mass spectrometry count [11] was 295 and the co-IP mass spectrometry count [12] was 18. The co-IP mass spectrometry count [13] was 3, the co-IP mass spectrometry count [14] was 5 and the co-IP mass spectrometry count [15] was 6. For the same substance, the co-IP mass spectrometry count [16] was 3, the co-IP mass spectrometry count [17] was 8 and the co-IP mass spectrometry count [18] was 7. It also gave a co-IP mass spectrometry count [19] of 0, a co-IP mass spectrometry count [20] of 5 and a co-IP mass spectrometry count [21] of 15.
